# Data taken from patent publication US20240101645A1 (HENRY M JACKSON FOUNDATION FOR THE ADVANCEMENT OF MILITARY …, published 2024).
# T1: HCoV-OC43 spike antigens (bead panel) (HCoV-OC43, UniProt P36334 14-1297)
# T1 sequence: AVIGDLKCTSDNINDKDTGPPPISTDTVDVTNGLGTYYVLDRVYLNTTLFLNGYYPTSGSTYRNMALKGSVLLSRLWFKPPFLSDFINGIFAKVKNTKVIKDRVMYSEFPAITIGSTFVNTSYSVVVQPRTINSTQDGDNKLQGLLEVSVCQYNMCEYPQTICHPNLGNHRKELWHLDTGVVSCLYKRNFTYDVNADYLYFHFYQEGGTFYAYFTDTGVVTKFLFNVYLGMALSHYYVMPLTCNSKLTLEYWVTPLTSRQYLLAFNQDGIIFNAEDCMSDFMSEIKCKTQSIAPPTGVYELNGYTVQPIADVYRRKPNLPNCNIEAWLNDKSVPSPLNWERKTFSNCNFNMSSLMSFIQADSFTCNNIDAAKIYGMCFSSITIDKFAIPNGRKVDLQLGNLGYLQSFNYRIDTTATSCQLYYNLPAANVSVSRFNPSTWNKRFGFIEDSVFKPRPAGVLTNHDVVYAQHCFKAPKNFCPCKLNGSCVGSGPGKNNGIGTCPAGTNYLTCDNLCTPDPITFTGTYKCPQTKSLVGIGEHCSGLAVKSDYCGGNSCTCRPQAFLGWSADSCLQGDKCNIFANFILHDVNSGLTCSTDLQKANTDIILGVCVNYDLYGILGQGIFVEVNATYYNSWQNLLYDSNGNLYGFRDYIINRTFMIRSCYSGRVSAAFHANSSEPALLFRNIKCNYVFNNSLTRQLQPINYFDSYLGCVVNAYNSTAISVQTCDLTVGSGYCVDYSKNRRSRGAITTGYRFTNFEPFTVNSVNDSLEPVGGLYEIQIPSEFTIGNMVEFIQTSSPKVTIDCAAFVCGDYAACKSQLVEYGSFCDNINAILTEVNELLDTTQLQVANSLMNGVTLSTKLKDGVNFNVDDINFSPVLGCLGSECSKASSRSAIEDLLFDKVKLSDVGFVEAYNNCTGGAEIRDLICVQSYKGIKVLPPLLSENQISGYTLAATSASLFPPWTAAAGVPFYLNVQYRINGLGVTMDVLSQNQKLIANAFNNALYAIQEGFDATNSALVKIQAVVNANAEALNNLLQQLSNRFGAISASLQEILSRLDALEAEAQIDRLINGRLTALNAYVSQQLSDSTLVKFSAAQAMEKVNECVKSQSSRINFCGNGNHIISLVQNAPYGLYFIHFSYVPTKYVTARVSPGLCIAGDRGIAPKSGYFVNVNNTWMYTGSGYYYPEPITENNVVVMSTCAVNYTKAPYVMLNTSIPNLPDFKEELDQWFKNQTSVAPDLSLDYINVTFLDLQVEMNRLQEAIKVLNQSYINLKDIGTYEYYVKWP
# T2: HCoV-HKU1 spike antigens (bead panel) (HCoV-HKU1, UniProt Q5MQD0 13-1300)
# T2 sequence: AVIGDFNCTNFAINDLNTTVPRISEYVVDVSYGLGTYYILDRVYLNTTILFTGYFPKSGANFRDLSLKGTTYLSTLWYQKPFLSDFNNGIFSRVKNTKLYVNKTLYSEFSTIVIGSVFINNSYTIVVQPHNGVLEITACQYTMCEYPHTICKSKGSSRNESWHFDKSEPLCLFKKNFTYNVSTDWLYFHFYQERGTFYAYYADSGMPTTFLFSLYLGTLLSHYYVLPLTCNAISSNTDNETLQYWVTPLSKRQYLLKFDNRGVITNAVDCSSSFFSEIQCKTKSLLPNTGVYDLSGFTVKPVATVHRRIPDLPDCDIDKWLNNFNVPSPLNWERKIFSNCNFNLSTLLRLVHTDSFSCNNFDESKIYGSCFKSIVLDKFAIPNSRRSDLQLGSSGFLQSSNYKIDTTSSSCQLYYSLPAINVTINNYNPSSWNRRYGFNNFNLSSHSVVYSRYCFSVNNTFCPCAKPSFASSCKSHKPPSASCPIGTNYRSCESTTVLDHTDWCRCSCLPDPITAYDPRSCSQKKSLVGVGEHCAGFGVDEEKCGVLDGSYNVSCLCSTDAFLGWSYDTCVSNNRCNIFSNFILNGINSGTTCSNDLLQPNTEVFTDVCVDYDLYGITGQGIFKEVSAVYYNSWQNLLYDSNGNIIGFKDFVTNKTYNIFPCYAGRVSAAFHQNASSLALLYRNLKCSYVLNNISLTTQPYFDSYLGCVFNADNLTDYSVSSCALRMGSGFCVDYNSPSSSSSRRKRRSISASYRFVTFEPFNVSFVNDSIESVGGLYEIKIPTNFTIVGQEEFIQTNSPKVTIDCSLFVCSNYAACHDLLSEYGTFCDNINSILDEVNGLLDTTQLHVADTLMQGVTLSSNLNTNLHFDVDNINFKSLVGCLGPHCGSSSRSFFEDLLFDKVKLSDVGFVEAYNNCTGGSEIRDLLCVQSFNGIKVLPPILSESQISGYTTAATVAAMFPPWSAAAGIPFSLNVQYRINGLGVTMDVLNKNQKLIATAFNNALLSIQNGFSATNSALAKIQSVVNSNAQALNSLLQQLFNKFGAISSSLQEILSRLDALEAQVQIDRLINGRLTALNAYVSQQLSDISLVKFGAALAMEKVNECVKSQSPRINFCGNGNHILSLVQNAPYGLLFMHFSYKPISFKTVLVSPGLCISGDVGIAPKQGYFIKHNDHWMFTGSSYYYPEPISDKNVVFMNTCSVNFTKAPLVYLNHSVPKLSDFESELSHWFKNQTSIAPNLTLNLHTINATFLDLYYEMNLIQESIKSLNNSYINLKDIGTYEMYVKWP
# B1: COV_1025 (antibody, V domains shown)
# VH: QVQLVESGGGVVQPGRSLRLSCAASGFTFNTYAMHWVRQAPGKGLEWVAIISYDGGNKYYADSMKGRFTISRDNSKNTLYLQMNSLRAEDTAVYYCARARTGNYYYGMDVWGQGTTVTVSS
# VL: not shown
# notes: human IgG1
# B2: COV_2093 (antibody, V domains shown)
# VH: EVQLVESGGGLVQPGGSLRLSCAASGFMFNRFWMSWVRQAPGKGLEWVTNIKQDGSEKNYVDSVKGRFTISRDNAKNSLYLQMNSLRAEDTAVYYCARDGLYYDFRSPSPFYGMDVWGQGTTVTVSS
# VL: DIQMTQSPSSLSASVGDRVTITCRASQSISSYLNWYQHKSGKAPKLLIYAASRLQSGVPSRFSGSGSGTDFTLTIVSLQPEDLATYYCQQSYSTPRTFGGGTKVEIKR
# notes: human IgG1
# B3: COV_2143 (antibody, V domains shown)
# VH: EVQLVESGGGVVQPGRSLRLSCAASGFTFNSFAMLWVRQAPGKGLEWVALFSYDGSNKYYADSVKGRFTISRDNSKNTLYLQMNNLRAVDTAVYYCARASPYDINGYYLHRIAFDIWGQGTMVTVSS
# VL: QSVLMQPPSVSGAPGQRVTISCTGSSSNIGAGYDVHWYQQLPGTAPKLLMYGNSNRPSGVPDRFSGSKSGTSASLAITGLQAEDEADYYCQSYDSGLSGWVFGGGTKLTVLG
# notes: human IgG1
# B4: COV_2032 (antibody, V domains shown)
# VH: EVQLVESGGGLVQPGGSLRLSCAASGFTFTTYWMHWVRQAPGKGLVWVSRIKTDGSSTNYADSVKGRFTISRDNAKNMLYLQMNSLRAEDTAVYYCAREGPVSIVYFDYWGQGTLVTVSS
# VL: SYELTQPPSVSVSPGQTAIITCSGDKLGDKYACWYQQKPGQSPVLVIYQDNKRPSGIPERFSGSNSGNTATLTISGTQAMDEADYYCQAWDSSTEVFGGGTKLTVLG
# notes: human IgG1
# B5: COV_2077 (antibody, V domains shown)
# VH: QVQLQESGPGLVKPSETLSLTCTVSGGSISSYSWSWIRQPPGKGLEWIGYIYYSGSTNYNPSLKSRVTISVDTSKNQFSLKLSSVTAADTAVYYCARESMGRYSLELRQPESAFDYWGRGTLVTVSS
# VL: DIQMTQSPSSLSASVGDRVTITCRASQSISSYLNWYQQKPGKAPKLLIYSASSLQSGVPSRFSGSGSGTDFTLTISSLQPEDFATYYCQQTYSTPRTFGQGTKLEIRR
# notes: human IgG1
# B6: COV_2123 (antibody, V domains shown)
# VH: EVQLVESGGGVVQPGRSLRLSCAASGFTFSSYAMHWVRQAPGKGLEWVAVLSYDGSNKYNADSVKGRFTISRDNSKNTLYLQMNSLRVEDTAMYYCARDGVSVTMVRGVIGPLCDYWGQGTLVTVSS
# VL: not shown
# notes: human IgG1
# B7: COV_1144 (antibody, V domains shown)
# VH: EVQLVESGGGLVQPGGSLRLSCAASGFTFRSFWMSWVRQAPGKGLEWVANIKEDASEKHYVDPVKGRFTISRDNAKNSLYLQLNSLRAEDMAVYYCARVGRGYCTNGLCYTAFEYWGQGTLVTVSS
# VL: DIQMTQSPSSLSASVGDRVTITCRTSQSISNYLNWYQQKPGKAPKLLIYAASSLQSGVPSRFSGSGSGTDFTLTISSLQPEDFATYYCQQSYSTAWTFGQGTKVEIRR
# notes: human IgG1
# B8: COV_1170 (antibody, V domains shown)
# VH: QVQLVESGGGVVQPGRSLRLSCAASGFTFSTYAMHWVRQAPGKGLEWVALISYDGSNKYYADSVKGRFTISRDNSKNTLDLQMNSLRAEDTAVYYCARSLGGYRTGFDYWGQGTLVTVSS
# VL: DIQLTQSPSFLSASVGDRVTITCRASQGISSYLAWYQQKPGKAPKLLIYAASTLQSGVPSRFSGSGSGTEFTLTISSLQPEDFATYYCQQLNSYPPFTFGPGTKVDIKR
# notes: human IgG1
# B9: COV_1166 (antibody, V domains shown)
# VH: EVQLVESGGGLVQPGGSLRLSCAVSGFTFRSFWMSWVRQTPGKGLEWVANIKEDGSEKYYVDSVKGRFTISRDNAKNSLYLQMNSLRAEDTAVYYCAREGRWELLGFAFDIWGQGTMVTVSS
# VL: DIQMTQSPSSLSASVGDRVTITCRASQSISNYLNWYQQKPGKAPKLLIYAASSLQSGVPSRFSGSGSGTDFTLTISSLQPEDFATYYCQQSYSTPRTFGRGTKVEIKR
# notes: human IgG1
# B10: COV_1172 (antibody, V domains shown)
# VH: QVQLQESGPGLVKPSETLSLTCTVSGGSIRSYYWSWIRQPPGKGLEWIGYIYYSGSTNYSPSLKSRVTISVDTSKNQFSLKLNSVTAADTAVYYCARRGLGYCSGDSCSNAFDIWGQGTMVTVSS
# VL: DIQMTQSPSSLSASVGDRVTITCRASQSISSYLNWYQQKPGRAPELLIYDASSLQSGVPSGFSGSGSGTDFTLTISSLQPEDFATYYCQQSYSTPFTFGPGTKVDIKR
# notes: human IgG1
# B11: COV_2048 (antibody, V domains shown)
# VH: QVQLQESGPGLVKPSETLSLTCTVSGGSISNTSYYWGWIRQPPGKGLEWIGSIYRSGSTYYNPSLKSRVTISIDTSKNQFTLKLSSVTAADTAVYYCARDYYGDYSAKPMEYWGQGTLVTVSS
# VL: QSALTQPRSVSGSPGQSVTISCTGTSSDVGGYNYVSWYQQHPGKAPKLLIYDVSKRPSGVPDRFSGSKSGNTASLTISGLQAEDEADYYCCSYAGSYVVFGGGAKLTVLG
# notes: human IgG1
# B12: COV_1151 (antibody, V domains shown)
# VH: QVQVQQWGAGLLKPSETLSLTCAVYGGSFNNYYWSWIRQPPGKGLEWIGEINHSGSTNYNPSLMSRVTISVDTSKNQFSLKLTSVTAADTAVYFCARGLPVTTFFSSYYGMDVWGQGTTVTVSS
# VL: EIVLTQSPGTLSLSPGERATLSCRASQSVSRTYLAWYQQKPGQAPRLLIYGASSRATGIPDRFSGSGSGTDFTLTISRLEPEDFAVYYCQHYGSSPWTFGQGTKVEIRR
# notes: human IgG1
# Molecular target: T1, HCoV-OC43 spike antigens (bead panel)
# Experiment: multiplex bead assay
row,Binder,binding result
1,B1,no binding
2,B2,no binding
3,B3,no binding
4,B4,no binding
5,B5,no binding
6,B6,no binding
7,B7,no binding
8,B8,no binding
9,B9,no binding
10,B10,no binding
11,B11,no binding
12,B12,no binding

# Molecular target: T2, HCoV-HKU1 spike antigens (bead panel)
# Experiment: multiplex bead assay
row,Binder,binding result
1,B1,no binding
2,B2,no binding
3,B3,no binding
4,B4,no binding
5,B5,no binding
6,B6,no binding
7,B7,no binding
8,B8,no binding
9,B9,no binding
10,B10,no binding
11,B11,no binding
12,B12,no binding

# Molecular target: SARS-CoV-2 S on pseudovirions (Wuhan Hu-1 / IL1/2020, last 18 amino acids removed) (SARS-CoV-2, UniProt P0DTC2 14-1273)
# Experiment: cell-based or functional assay
Binder,"Mean IC50, pSV neutralization [µg/ml]","Mean IC80, pSV neutralization [µg/ml]"
B2,≥ 25,≥ 25
B3,≥ 25,≥ 25
B5,≥ 25,≥ 25
B6,,0.03
B7,≥ 25,≥ 25
B8,0.2,≥ 25
B9,≥ 25,≥ 25
B10,≥ 25,≥ 25
B11,20.3,≥ 25
B12,≥ 25,≥ 25
